Experiments:
NCI-H295R = assay: CRE-luciferase reporter assay in NCI-H295R adrenal cortex cells; assay type: cell-based, human
Excerpt: Summary: A human adrenal cortex cell line, NCI-H295R, was used to study signal transduction of CGH. NCI-H295R was transduced with recombinant adenovirus containing a reporter construct, a firefly luciferase gene under the control of cAMP response element (CRE) enhancer sequences. This assay system detects cAMP-mediated gene induction downstream of activation of Gs-coupled GPCR's (G-protein coupled receptors). […] Typically, CGH elicited a maximal response of 15-40-fold luciferase induction above control media.
NCI-H295R cells were obtained from the ATCC (CRL-2128, Manassas, Va.) and cultured in growth medium as follows: 1:1 mixture of Dulbecco's modified Eagle's medium and Ham's F12 medium with L-glutamine (D-MEM/F-12; GIBCO, cat.#11320-033) containing 25 mM HEPES buffer (GIBCO, Invitrogen, Carlsbad, Calif., cat.#15630-080), 1 mM sodium pyruvate (GIBCO, cat.#11360-070), 1% ITS+1 media supplement (Sigma St. Louis, Mo. cat#I2521) and 2.5% Nu-Se I (BD Biosciences, Lexington, Ky. cat.#355100). Cells were cultured at 37° C. in a 5% CO2 humidified incubator. […]
Promega's Luciferase Assay System (Promega, Madison, Wis., cat. #E1500) was used to process the treated cells. […] Luciferase activity was measured on a microplate luminometer (PerkinElmer Life Sciences, Inc., model LB 96V2R) following automated injection of luciferase assay substrate.

adrenal glands = assay: Intraperitoneal recombinant CGH for two weeks, adrenal weight; assay type: in vivo, mice; settings: 0.25 mg/kg CGH i.p. daily, day 15, female C57BL/6
Excerpt: Summary: Mice were exposed to CGH through infection with adenovirus particles expressing GPHA2 and GPHB5, leading to overexpression and secretion of CGH from the liver of these animals. […] The hypertrophy was apparent in the inner cortical layers, the zona fasciculata and the zona reticularis. Similarly, mice were exposed to CGH through intraperitoneal injection of recombinant CGH protein alone, recombinant CGH protein along with the glucocorticoid Dexamethasone (Dex), Dex alone, or PBS alone daily for two weeks.
Sixteen C57BL/6 female mice at 8 weeks of age were separated into four groups. The first group received daily injections of 0.25 mg/kg of recombinant CGH protein intraperitoneally. The second group received daily injections of PBS using the same procedure. The third group received daily injections of 0.25 mg/kg of CGH plus 0.05 mg/kg Dex and the final group received 0.5 mg/kg Dex, alone. Animals were sacrificed on day 15 and the adrenal glands were isolated and weighed. Example 5 describes the expression and purification of recombinant CGH protein used in this experiment.

[1] = system: neutrophil infiltration in the ears; assay: Neutrophil (Gr-1) histomorphometry of ears in DTH experiment #1; assay type: in vivo, mice
Protocol: Ears from mice in DTH experiment #1 were analyzed by immunohistochemistry to assess which cell types were most affected by CGH treatment. Ears were fixed in Zinc/Tris buffer (2.3 mM calcium acetate/31.6 mM zinc acetate/36.7 mM zinc chloride in 0.1M Tris-HCL buffer, pH 7.4) for 24 hours at room temperature and stained with antibodies specific for CD4, CD8, CD11c, and Gr-1 (neutrophils). […] Ears were stained using a TechMate 500 autoimmunostainer (Biotech/Ventana) MIP protocol with some modifications. […] This step was followed, after a wash, by biotinylated rabbit anti-rat IgG secondary antibody (Dako, used at 10 ug/ml in PBS with 2% normal rabbit serum and 2% nonfat dry milk) for 45 min. The sections were then washed and treated with HP Block (1.5% H2O2 in 50% methanol) 3 times, 7 min each, followed by 25 min in avidin-biotin complex, 3 times of 4 min each in DAB (Diaminobenzidine), then with Methyl green for 10 min.
From this staining procedure, there was a clear reduction in the number of neutrophils infiltrating the ears of those mice treated with CGH or Dex, compared to the PBS-treated controls. Histomorphometry was performed to obtain the average pixel density of neutrophils per unit length (1 mm) present in the ear samples. Despite a fair amount of variability among each group, there was a significant reduction in neutrophil staining in the Dex and low dose CGH groups, as well as a nearly significant (p=0.0507) reduction in the high dose CGH group (see TABLE 5, p values).

thymus = system: thymus; set-up: species or system mice; settings: mouse, in vivo
Excerpt: Since the receptor for CGH, TSH-R, is expressed by the adrenal glands, there was concern that the anti-inflammatory effects observed might be an indirect effect of increasing endogenous corticosteroid production in CGH-treated mice. One well-established side effect of increasing either exogenous or endogenous corticosteroid levels is substantial atrophy of the thymus, as the developing T cells are induced to undergo apoptosis. Therefore, the thymuses of the CGH and Dex-treated mice in the DTH experiments were analyzed. […] Thus, CGH seems to be mediating its anti-inflammatory effects in a manner distinct from that of exgenous glucocorticoids like Dex.

[2] = 0.2 mg/kg CGH i.p. at challenge (day 7)
[3] = 2 mg/kg CGH i.p. at challenge (day 7)

B1: CGH: heterodimeric protein hormone comprised of alpha subunit GPHA2 and beta subunit GPHB5, recombinantly produced in CHO cells (protein)
chain 1: QEAVIPGCHLHPFNVTVRSDRQGTCQGSHVAQACVGHCESSAFPSRYSVLVASGYRHNITSVSQCCTISGLKKVKVQLQCVGSRREELEIFTARACQCDMCRLSRY
chain 2: ASSGNLRTFVGCAVREFTFLAKKPGCRGLRITTDACWGRCETWEKPILEPPYIEAHHRVCTYNETKQVTVKLPNCAPGVDPFYTYPVAIRCDCGACSTATTECETI
- maximal response, luciferase induction above control media (NCI-H295R; CRE-luciferase, 4 h): 15-40 fold
- induction of luciferase activity compared with 10 μM forskolin (NCI-H295R; dose-dependent): equal to or higher than that induced by 10 μM forskolin
- Average adrenal weight/100 g body weight (adrenal glands): 22.26 +/− 0.99
- Pixel density: Neutrophils, left ear (PBS) [1, 2]: 544 +/− 1044
- Pixel density: Neutrophils, right ear (OVA) [1, 2]: 5605 +/− 3725
- Pixel density: Neutrophils, left ear (PBS) [1, 3]: 273 +/− 399
- Pixel density: Neutrophils, right ear (OVA) [1, 3]: 5535 +/− 5331
- relative proportion of each thymocyte subset vs PBS-treated group (thymus): not significantly different
